Results published in paper PMC314469, “Protein Interaction Networks by Proteome Peptide Scanning” (PLoS Biology, 2004).

T1: Boi2 SH3 (BOI2_YEAST), P39969
T1 chain: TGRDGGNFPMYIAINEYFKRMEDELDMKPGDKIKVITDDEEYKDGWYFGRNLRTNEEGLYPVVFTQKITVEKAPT

T2: Myo5 SH3 (MYO5_YEAST), Q04439
T2 chain: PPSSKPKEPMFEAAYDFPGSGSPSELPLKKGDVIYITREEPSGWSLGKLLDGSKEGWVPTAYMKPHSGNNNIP

T3: Yhr016c SH3 (YSC84_YEAST), P32793
T3 chain: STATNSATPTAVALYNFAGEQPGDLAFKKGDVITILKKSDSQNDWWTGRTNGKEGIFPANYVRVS

T4: Yfr024 SH3 (LSB3_YEAST), P43603
T4 chain: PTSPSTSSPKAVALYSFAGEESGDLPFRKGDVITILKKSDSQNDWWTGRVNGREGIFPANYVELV

T5: Rvs167 SH3 (RV167_YEAST), P39743
T5 chain: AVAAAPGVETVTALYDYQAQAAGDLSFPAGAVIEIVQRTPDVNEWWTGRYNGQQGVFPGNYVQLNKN

T6: Boi1 SH3 (BOI1_YEAST), P38041
T6 chain: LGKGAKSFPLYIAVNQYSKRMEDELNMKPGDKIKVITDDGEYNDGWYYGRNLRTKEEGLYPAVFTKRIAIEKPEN


What was measured:
Experiment in all cases: SPOT array
[1] = target: T1, Boi2 SH3 (BOI2_YEAST), P39969
[2] = target: Sho1 SH3 (SHO1_YEAST), P40073
Sho1 SH3 (SHO1_YEAST), P40073, sequence (P40073 295-366): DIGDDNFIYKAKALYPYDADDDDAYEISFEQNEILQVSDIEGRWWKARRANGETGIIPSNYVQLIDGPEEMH

[3] = target: T2, Myo5 SH3 (MYO5_YEAST), Q04439
[4] = target: T3, Yhr016c SH3 (YSC84_YEAST), P32793
[5] = target: T4, Yfr024 SH3 (LSB3_YEAST), P43603
[6] = target: T5, Rvs167 SH3 (RV167_YEAST), P39743
[7] = target: T6, Boi1 SH3 (BOI1_YEAST), P38041

Row | Binder | normalised SPOT signal, Boehringer light units (BLU); mean over the file's lines of this peptide [1] | normalised SPOT signal, Boehringer light units (BLU); mean over the file's lines of this peptide [2] | normalised SPOT signal, Boehringer light units (BLU); mean over the file's lines of this peptide [3] | normalised SPOT signal, Boehringer light units (BLU); mean over the file's lines of this peptide [4] | normalised SPOT signal, Boehringer light units (BLU); mean over the file's lines of this peptide [5] | normalised SPOT signal, Boehringer light units (BLU); mean over the file's lines of this peptide [6] | normalised SPOT signal, Boehringer light units (BLU); mean over the file's lines of this peptide [7]
1 | KALWKIQPYLPEFS [YML130C 280-293] | 47.8 | 178 | 146 | 43 | 201 | 41.7 | 0
2 | KDKARGNPEKPPYW [YJL036W 14-27] | 15.2 | 50.3 | 59.9 | 19.5 | 63.5 | 67.1 | 247
3 | KIVERGPPYPPDLR [YDR464W 649-662] | 4.7 | 14.8 | 138 | 20.3 | 93.1 | 102 | 74.9
4 | KFFKREYPDIPMIA [YMR190C 828-841] | 20.2 | 359 | 155 | 42.3 | 120 | 127 | 201
5 | KITKKLGPKLPKAS [YNL297C 1291-1304] | 21 | 47.2 | 681 | 43.5 | 490 | 187 | 198
6 | KDFSKNAPYNPSEV [YPR022C 111-124] | 53.8 | 42 | 143 | 59.1 | 0 | 63.7 | 76.6
7 | KIVRRDYPSTPVIV [YOR019W 147-160] | 3.2 | 33.5 | 366 | 17.5 | 267 | 206 | 235
8 | KFDAKGRPIPPHPD [YJL042W 327-340] | 3.5 | 27.1 | 53.5 | 39.4 | 224 | 58.6 | 460
9 | KKIAKGDPKIPMQN [YNL155W 157-170] | 1 | 103 | 720 | 89.5 | 190 | 147 | 779
10 | KEFFRLTPNQPVGL [YOR168W 628-641] | -0 | 25.9 | 43.8 | 14.9 | 166 | 175 | 136
11 | KDEVKLHPPEPKDL [YIL009W 251-264] | 2.4 | 50.6 | 164 | 18.9 | 0 | 32.3 | 102
12 | KKHDKLYPKYPSVK [YFL004W 130-143] | 16.5 | 114 | 340 | 37.6 | 184 | 61.3 | 435
13 | KIIKKSSPSVPKEE [YNL265C 154-167] | 0.6 | 1230 | 242 | 12.1 | 191 | 176 | 389
14 | KHEPKKSPTTPALA [YDL220C 702-715] | 36.2 | 21.3 | 726 | 26.8 | 19.7 | 30.5 | 442
15 | KKHDKLHPNYPSVK [YPL019C 129-142] | 33.3 | 72.4 | 407 | 12.6 | 164 | 415 | 674
16 | KGVLKEYPMRPYGS [YCR068W 315-328] | 14 | 78.4 | 117 | 134 | 1160 | 38.3 | 251
